Here are results for 14 sequences from the DeepSol protein solubility set.

A short description of this series: soluble on expression in E. coli; label from the status in PepcDB or PDB records.
For the sequence “MPRPRVLLLGDPARHLDDLWSDFQQKFEVIPANLTTHDGFKQALREKRYGDFEAIIKLAVENGTESYPWNADLISHLPSSLKVFAAAGAGFDWLDLDALNERGVAFANSRGAGDTATSDLALYLILSVFRLASYSERAARTGDPETFNRVHLEIGKSAHNPRGHVLGAVGLGAIQKEIARKAVHGLGMKLVYYDVAPADAETEKALGAERVDSLEELARRSDCVSVSVPYMKLTHHLIDEAFFAAMKPGSRIVNTARGPVISQDALIAALKSGKLLSAGLDVHEFEPQVSKELIEMKHVTLTTHIGGVAIETFHEFERLTMTNIDRFLLQGKPLLTPAGKVFAPSSAA”, the “soluble on expression in E. coli” value was “soluble”.
On to “MTEQTSPESLTDGAHSKTDSAWPLACNLEPRLVSRGRWQTTQWMLHGFSLTPEAQSQYVATLHLYRDERTDYRFNLSSQAPKLFLVAEDPIEDQPLKVVQLTASQAVASRYMDSDYLVLSADMPLPVQALMEAYIGRHGELLEIRRKKREGAGRSCGN”, for which the “soluble on expression in E. coli” value is listed as “not soluble”.
As for “MPTTRHYDIVIIGGGIQGAAVAQAAAALGYNVLVLEKTALAAGTSSRSSKLIHGGLRYLESGQFGLVWESLKERAALLRLAPSLVRLQPFHIPIYDQTSRDTLTIRAGLSLYALLAGLSKGAGFHSIPRRRWGELDGLSTRGLRHVFQYWDAQTDDQALTRAIMHSASSLGVELHCPAEFIHARISGEICEIEFLENNQAYQCTASSLVNAAGPWVSQVAERISPAPPAYPVELVQGTHLILEGSLDKGCYYLESPQDRRAIFALPWKQHILLGTTETVFEGAPDKALPLVSEENYLLGCFRYYFPDHGATVRERFTGLRVLPVSRNNPFGRSRETHLQCDSPESPRIVGIYGGKLTVCRATARKVLHTLRPSLPVRIPKADISQLTLKLPLEHHHHHH”, the “soluble on expression in E. coli” value was “soluble”.
As for “MYRAIGMIELTSVARGIYATDQMLKIAYVDVVSATPVCPGKYIAIVQGDVAAVESSISTGIAISGEYLVDSFVLPNVHEGIFPAITATTMPDGTGALGIMESFSMASMITAADAALKAADVQALELRLGSGLGGKAYFTFTGDVAAVEAGIEAGKAIAMEKGLLVDIEVIPSPSDRLWTSLY”, the “soluble on expression in E. coli” value is “soluble”.
As for “MRKVPIITADEAAKLIKDGDTVTTSGFVGNAIPEALDRAVEKRFLETGEPKNITYVYCGSQGNRDGRGAEHFAHEGLLKRYIAGHWATVPALGKMAMENKMEAYNVSQGALCHLFRDIASHKPGVFTKVGIGTFIDPRNGGGKVNDITKEDIVELVEIKGQEYLFYPAFPIHVALIRGTYADESGNITFEKEVAPLEGTSVCQAVKNSGGIVVVQVERVVKAGTLDPRHVKVPGIYVDYVVVADPEDHQQSLDCEYDPALSGEHRRPEVVGEPLPLSAKKVIGRRGAIELEKDVAVNLGVGAPEYVASVADEEGIVDFMTLTAESGAIGGVPAGGVRFGASYNADALIDQGYQFDYYDGGGLDLCYLGLAECDEKGNINVSRFGPRIAGCGGFINITQNTPKVFFCGTFTAGGLKVKIEDGKVIIVQEGKQKKFLKAVEQITFNGDVALANKQQVTYITERCVFLLKEDGLHLSEIAPGIDLQTQILDVMDFAPIIDRDANGQIKLMDAALFAEGLMGLKEMKS”, the “soluble on expression in E. coli” value is “soluble”.
Turning to “MGSDKIHHHHHHMIPEKKSIAIMKELSIGNTKQMLMINGVDVKNPLLLFLHGGPGTPQIGYVRHYQKELEQYFTVVHWDQRGSGLSYSKRISHHSMTINHFIKDTIQVTQWLLAHFSKSKLYLAGHSWGSILALHVLQQRPDLFYTYYGISQVVNPQDEESTAYQHIREISESKKASILSFLTRFIGAPPWKQDIQHLIYRFCVELTRGGFTHRHRQSLAVLFQMLTGNEYGVRNMHSFLNGLRFSKKHLTDELYRFNAFTSVPSIKVPCVFISGKHDLIVPAEISKQYYQELEAPEKRWFQFENSAHTPHIEEPSLFANTLSRHARNHL”, the “soluble on expression in E. coli” value is recorded as “not soluble”.
For “MRNLLQKCFKWQWLVCLAVGCCFSSCKDDEESTSGYDPNKPIVLTDFYPPEGKLATQVILNGSNFGDSKENVKVFFNDKEASVISVKDDRMLVLAPKRASTIEDPECVVKVQVHEQIEEYKQTFDYYIQTTVTTLVGGSTSAQVNPTGTIPLSEAQFRANIDRCICVDQDKNVFFLVDNDGKFAAFMLNEEADKLISLKSDINALFNSPVLGYNSKDDIVYQFWANRDSHEVYYFDPKTDYAPTTAISSISWDDPNFPNIEGFGVWAAKCNFTMGPDGKMYSRMLGGNLVRIDVENARGENLTNGDLVGTKDGSAYGLVFDPQDENVFYFSNNDKHCIYKYDLRTKECACWAGQEGKSGYLDGPIGQAMFNKPGQMCVDSEGNIILTDTENHCIRKITMSTGYVSTLAGKPQNSGYVNGSAEDAQFKKPLGICIDNDDVMYIGDSENRAIRRLAVELEHHHHHH”, the “soluble on expression in E. coli” value is “soluble”.
With “MANTGCLSPGAFLSKVPEFFQTANEKHITVRLTAKRLIEHDPVEGNLEFDSTNHPDYDVSKKASEISVSSRSDREYPLLIRMSYGSHDKKTKCSTVVKASELDQFWQEYSSVFKGGMQNLIKKKKKKSKNGTISKTGKKNKVAKKN”, the “soluble on expression in E. coli” value is “not soluble”.
“MGSDKIHHHHHHMMAVAHKGEAQFDFYWRQQGEWVEEPNQRRGGESGVQRLNDADGKLLYAKRQVGHIYRSLLHPFGRPTVLRELDALNSFEQLGVRVPRIVFCGAQRDAEHQWRALLVSEALDGFVELDTWHAEGARERYPQVVHERMLKDLADNLARMHLGHWQHGCLYGKHVFIKVIGEGEQARVEVALLDLEKCRRRISCQRAAGNDLRQLRRHSSLNDAEWRTLLYFYKMAFGSAVKGLE”: the “soluble on expression in E. coli” value is given as “not soluble”.
Consider “MDSGRLAVIALGGNAIAGPGMDVSVESQTAAVKRASSIIADVLADGWRSVITHGNGPQVGYLSEAFEALPPERPRQPLYIATAMTQAWIGLLLKHSLEEELRRRGLNVLVPVVISRVLVDVSDPSFNNPSKPVGPIYGREEAEELSRRYGWVFKRDPRGGFRRVVPSPRPVSIVDRDLIAEASAESPAVVALGGGGVPVVERPGGVLEPVEAVVDKDLASSLLATQLNADLLVILTDVPGVAVNYGREGERWLRRAAASELKKYLREGHFPPGSMGPKVEAAISFVERTGKPAVIGSLEEARQVLSLQAGTVVMLG”, for which the “soluble on expression in E. coli” value was “soluble”.
Consider “MNNTDYMIHLLARTIKTGKDELITPLIIQLSDMQVSRDLLEKHNLPALVAEYAPFNEAAKSLSKSVLAWKYEEIAQEMPQLLKEFVQIAKEKRVPEEFMVRLVTSLMDFDDLDTVRSCLEILNHFEFSLDEYEELGIYRKATQFEGQFRDADEIIAKVDVLLLQDEILEEDEAEVEADDLIGHAEENEEEENDFSDDESVISETESGIYTDEELELEDHFEAVRKEDRKDQVMTEICMMLLAGYIRSGNSEVISAAIKFTWAFDYSLEMYQKYDIQNLIYNFGVHNDDAELLMNHIKELQARELFNENRKFFKRFLRTCMEEKTITDSVLSYLKGFLENGDDYMVSCTLKFLLGMPITLSQFKTSHVEACLENLESGPSAQLGFMLKMKIQKLEHSEKS”, for which the “soluble on expression in E. coli” value is “not soluble”.
With “MGSDKIHHHHHHLYNQPEVALEKYELTVSRIIKGRGAYICDTGIGQKLLVPYRGHEQRACTLRDTLAFIQRNGMDVEQISQTKEQCIISRDNCEDAYILKDYRAGRECSTDSIDDMRGGSRALAQLHNILEKYPLPSDIEVESLYEKAQRKCAQIVKLKNYILRRSKTNAFEHLFYECYERFLEQGQKSAEILCELENSKTSVPIYCHGAFNQHNVVYTQSGRWLPVNFETMHPGYPETDLAEYMRKMLEKNHWDTAVADAILDSYCSVRSLDDTSMRLLQALLLFPEKFCKLCNHYSNSRKSWVCDRDVDKLAQLIQLSGEREEYLHALQAIV” the entry was “not soluble”.
For “MTQVSIIVPVLNEESTIHSAVSRLCRDFPDCELIVVDGGSTDATAELAALHATVIGSERGRAKQMNEGARHASGGILWFIHADTAIEPEALGQIRSVLADPAVVAGGLTLRFDRRTPALNYLAWTSNARARRLHHIFGDQAMFIRRTAFDELGGFPDLAIMEDLEMSRRLHRRGPLRLLPATSTASSRRLTAHGTWRMIAFMQYLKLLYFAGADPEAIRARYTAGPRLFPKRNPATLEHHHHHH”, the “soluble on expression in E. coli” value is “not soluble”.
On to “MVILMRAPIVEVFSSIQGEGLLVGRRQIFVRFAGCNLNCSYCDTPESRDPSAGRLFTAPELTEIIEGLITPDFHSISITGGEPLLYPDFITELLEESPHRTLLETNGSLPSNAERIAHLFDYASVDIKIAEHFSDNLRSGTTESDISSPGDLIDREIQVINILISRGVNTYCKVVVMPTTGAGYIGALAERLLECVDEPERLPLVIQPCSPPEQWAQNTPRLLEMSQEAGKYMDVYVIPQMHRALGLR”, for which the “soluble on expression in E. coli” value was “soluble”.
